Source: PMC6233052 (Molecular Biology of the Cell, 2018)

T1: HA-tagged full-length FliI (UniProt Q9JJ28 1-1271)
T1 sequence: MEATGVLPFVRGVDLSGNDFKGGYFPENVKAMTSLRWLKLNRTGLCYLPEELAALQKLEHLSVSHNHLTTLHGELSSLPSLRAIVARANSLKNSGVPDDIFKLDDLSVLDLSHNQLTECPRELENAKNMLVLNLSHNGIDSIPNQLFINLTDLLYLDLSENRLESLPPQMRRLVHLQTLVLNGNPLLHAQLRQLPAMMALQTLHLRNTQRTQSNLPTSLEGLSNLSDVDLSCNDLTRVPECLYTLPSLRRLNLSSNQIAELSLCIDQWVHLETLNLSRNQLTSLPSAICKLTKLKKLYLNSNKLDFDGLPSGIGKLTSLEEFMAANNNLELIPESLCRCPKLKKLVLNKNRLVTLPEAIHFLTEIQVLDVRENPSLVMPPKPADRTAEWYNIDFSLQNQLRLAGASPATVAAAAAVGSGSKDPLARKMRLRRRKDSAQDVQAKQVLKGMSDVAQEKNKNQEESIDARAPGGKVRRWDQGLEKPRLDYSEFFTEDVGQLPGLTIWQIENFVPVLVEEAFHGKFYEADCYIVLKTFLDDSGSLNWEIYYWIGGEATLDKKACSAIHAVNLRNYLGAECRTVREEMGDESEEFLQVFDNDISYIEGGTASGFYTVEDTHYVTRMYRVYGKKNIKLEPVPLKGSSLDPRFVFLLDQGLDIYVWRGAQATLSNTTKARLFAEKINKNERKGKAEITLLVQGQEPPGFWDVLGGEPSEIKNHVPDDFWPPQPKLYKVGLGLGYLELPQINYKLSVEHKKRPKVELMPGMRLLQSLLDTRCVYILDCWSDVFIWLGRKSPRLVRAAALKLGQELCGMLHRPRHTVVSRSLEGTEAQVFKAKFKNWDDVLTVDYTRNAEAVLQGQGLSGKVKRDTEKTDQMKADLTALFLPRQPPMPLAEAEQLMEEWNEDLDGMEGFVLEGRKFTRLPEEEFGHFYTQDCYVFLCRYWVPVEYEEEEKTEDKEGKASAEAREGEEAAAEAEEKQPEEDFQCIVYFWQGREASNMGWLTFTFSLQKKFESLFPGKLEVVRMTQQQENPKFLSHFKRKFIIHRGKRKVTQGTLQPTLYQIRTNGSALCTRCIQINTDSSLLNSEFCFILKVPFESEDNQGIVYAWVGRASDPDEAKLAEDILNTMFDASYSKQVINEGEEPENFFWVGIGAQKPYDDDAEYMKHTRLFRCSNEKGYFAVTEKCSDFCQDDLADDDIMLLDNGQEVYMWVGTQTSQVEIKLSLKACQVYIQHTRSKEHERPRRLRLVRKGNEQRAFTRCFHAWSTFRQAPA

T2: HA-tagged CA R-ras mutant (P202A; P203A) (UniProt P10301 1-218, G38V | P202A | P203A)
T2 sequence: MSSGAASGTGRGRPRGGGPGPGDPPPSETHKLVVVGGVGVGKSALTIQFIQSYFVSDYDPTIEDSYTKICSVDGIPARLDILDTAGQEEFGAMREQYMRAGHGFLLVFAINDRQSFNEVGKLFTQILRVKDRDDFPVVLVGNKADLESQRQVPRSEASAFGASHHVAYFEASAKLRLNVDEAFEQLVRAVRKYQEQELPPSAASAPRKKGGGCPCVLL

T3: HA-tagged WT R-ras (UniProt P10301 1-218)
T3 sequence: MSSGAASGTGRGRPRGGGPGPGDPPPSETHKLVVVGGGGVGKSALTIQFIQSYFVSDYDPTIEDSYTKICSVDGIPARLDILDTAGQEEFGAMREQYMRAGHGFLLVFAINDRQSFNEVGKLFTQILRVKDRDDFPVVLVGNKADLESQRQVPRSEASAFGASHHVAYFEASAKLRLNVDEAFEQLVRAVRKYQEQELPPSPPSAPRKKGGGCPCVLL

T4: HA-tagged constitutively active R-ras (G38V) (UniProt P10301 1-218, G38V)
T4 sequence: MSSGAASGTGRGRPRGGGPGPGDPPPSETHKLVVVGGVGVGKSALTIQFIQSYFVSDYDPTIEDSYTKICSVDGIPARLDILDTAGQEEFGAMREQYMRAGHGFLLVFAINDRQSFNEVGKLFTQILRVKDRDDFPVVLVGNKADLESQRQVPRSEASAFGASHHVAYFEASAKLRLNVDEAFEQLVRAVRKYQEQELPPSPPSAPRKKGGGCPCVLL


Experiments:
Experiment in all cases: co-IP
HA-tagged FliI LRR = target: HA-tagged FliI LRR
[1] = target: T1, HA-tagged full-length FliI
[2] = target: T2, HA-tagged CA R-ras mutant (P202A; P203A)
HA-tagged WT R-ras = target: T3, HA-tagged WT R-ras
[3] = target: T4, HA-tagged constitutively active R-ras …

Binder | fold association compared with FliI GLD (HA-tagged FliI LRR) | fold association compared with FliI GLD [1] | fold reduction of association compared with CA R-ras [2] | fold association compared with DN R-ras (HA-tagged WT R-ras) | fold association compared with DN R-ras [3]
R-ras, endogenous (natural protein) MSSGAASGTGRGRPRGGGPGPRDPPPGETHKLVVVGGGGVGKSALTIQFIQSYFVSDYDPTIEDSYTKICTVDGIPARLDILDTAGQEEFGAMREQYMRAGNGFLLVFAINDRQSFNEVGKLFTQILRVKDRDDFPIVLVGNKADLENQRQVLRSEASSFSASHHMTYFEASAKLRLNVDEAFEQLVRAVRKYQEQELPPSPPSAPRKKDGGCPCVLL | 4 fold | 4.6 fold |  |  | 
Flightless I (FliI), endogenous (natural protein) MEATGVLPFVRGVDLSGNDFKGGYFPENVKAMTSLRWLKLNRTGLCYLPEELAALQKLEHLSVSHNHLTTLHGELSSLPSLRAIVARANSLKNSGVPDDIFKLDDLSVLDLSHNQLTECPRELENAKNMLVLNLSHNGIDSIPNQLFINLTDLLYLDLSENRLESLPPQMRRLVHLQTLVLNGNPLLHAQLRQLPAMMALQTLHLRNTQRTQSNLPTSLEGLSNLSDVDLSCNDLTRVPECLYTLPSLRRLNLSSNQIAELSLCIDQWVHLETLNLSRNQLTSLPSAICKLTKLKKLYLNSNKLDFDGLPSGIGKLTSLEEFMAANNNLELIPESLCRCPKLKKLVLNKNRLVTLPEAIHFLTEIQVLDVRENPSLVMPPKPADRTAEWYNIDFSLQNQLRLAGASPATVAAAAAVGSGSKDPLARKMRLRRRKDSAQDVQAKQVLKGMSDVAQEKNKNQEESIDARAPGGKVRRWDQGLEKPRLDYSEFFTEDVGQLPGLTIWQIENFVPVLVEEAFHGKFYEADCYIVLKTFLDDSGSLNWEIYYWIGGEATLDKKACSAIHAVNLRNYLGAECRTVREEMGDESEEFLQVFDNDISYIEGGTASGFYTVEDTHYVTRMYRVYGKKNIKLEPVPLKGSSLDPRFVFLLDQGLDIYVWRGAQATLSNTTKARLFAEKINKNERKGKAEITLLVQGQEPPGFWDVLGGEPSEIKNHVPDDFWPPQPKLYKVGLGLGYLELPQINYKLSVEHKKRPKVELMPGMRLLQSLLDTRCVYILDCWSDVFIWLGRKSPRLVRAAALKLGQELCGMLHRPRHTVVSRSLEGTEAQVFKAKFKNWDDVLTVDYTRNAEAVLQGQGLSGKVKRDTEKTDQMKADLTALFLPRQPPMPLAEAEQLMEEWNEDLDGMEGFVLEGRKFTRLPEEEFGHFYTQDCYVFLCRYWVPVEYEEEEKTEDKEGKASAEAREGEEAAAEAEEKQPEEDFQCIVYFWQGREASNMGWLTFTFSLQKKFESLFPGKLEVVRMTQQQENPKFLSHFKRKFIIHRGKRKVTQGTLQPTLYQIRTNGSALCTRCIQINTDSSLLNSEFCFILKVPFESEDNQGIVYAWVGRASDPDEAKLAEDILNTMFDASYSKQVINEGEEPENFFWVGIGAQKPYDDDAEYMKHTRLFRCSNEKGYFAVTEKCSDFCQDDLADDDIMLLDNGQEVYMWVGTQTSQVEIKLSLKACQVYIQHTRSKEHERPRRLRLVRKGNEQRAFTRCFHAWSTFRQAPA |  |  | 4 fold | 2.5 fold | 3.5 fold
